Assay [1] addresses recombinant human IL13Rα2hFc chimera (human) (UniProt Q14627). Briefly: SPR, Biacore 3000; mAb immobilized, rhIL13Rα2 injected; 1:1 model. In general terms: SPR reads the build-up and loss of mass on a sensor chip optically.
Assay [2] deals with Pngase F-treated rhIL13Rα2hFc (human) (UniProt Q14627). The experiment in a line: plate-bound ELISA, Pngase F-treated rhIL13Rα2hFc.
Assay [3] deals with human wild-type IL13Rα2 expressed on the cell surface (human) (UniProt Q14627). The experiment in a line: flow cytometry (APC-A), N10 glioma cells pre-incubated with 10x excess rhIL13, then mIgG. (In general: A flow cytometer gives signals particle by particle.)
Sequence of human wild-type IL13Rα2 expressed on the cell surface (human) (Q14627 27-380): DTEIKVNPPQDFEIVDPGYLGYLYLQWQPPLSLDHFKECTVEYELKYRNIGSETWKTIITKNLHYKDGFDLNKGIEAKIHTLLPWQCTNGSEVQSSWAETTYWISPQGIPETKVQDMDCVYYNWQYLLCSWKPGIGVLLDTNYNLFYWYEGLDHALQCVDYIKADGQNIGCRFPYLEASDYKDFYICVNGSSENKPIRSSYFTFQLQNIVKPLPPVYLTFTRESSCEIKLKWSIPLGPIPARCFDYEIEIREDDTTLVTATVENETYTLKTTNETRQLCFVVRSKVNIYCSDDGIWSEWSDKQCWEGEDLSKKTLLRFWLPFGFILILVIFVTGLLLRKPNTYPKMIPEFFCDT
For assay [4] the target is unchanged. Briefly: flow cytometry (APC-A), N10 glioma cells.
In assay [5] the target is recombinant human IL13Rα2hFc chimera (human) (UniProt Q14627). Briefly: plate-bound ELISA on rhIL13Rα2hFc. (In general: An ELISA detects its analyte on a solid surface through an enzyme-linked reagent.)
Sequence of recombinant human IL13Rα2hFc chimera (human) (Q14627 27-343 limits assumed, stated change not applied): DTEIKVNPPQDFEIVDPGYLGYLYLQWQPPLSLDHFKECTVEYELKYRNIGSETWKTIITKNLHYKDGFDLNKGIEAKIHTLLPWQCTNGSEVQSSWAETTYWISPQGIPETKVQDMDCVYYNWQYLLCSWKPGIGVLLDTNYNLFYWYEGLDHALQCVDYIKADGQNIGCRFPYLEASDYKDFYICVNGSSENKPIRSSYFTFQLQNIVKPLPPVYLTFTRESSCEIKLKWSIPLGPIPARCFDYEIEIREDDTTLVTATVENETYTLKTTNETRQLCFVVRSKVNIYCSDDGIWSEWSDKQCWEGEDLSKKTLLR

The text below walks through data of patent publication US20190300616A1.

Usually Kd stands for the equilibrium constant for the complex coming apart. Usually koff stands for the rate constant with which the complex falls apart. Broadly, the kon is the second-order rate constant of association. What is called EC50 (read off the curve) is the concentration giving half of the maximal effect.

Sequence of Pngase F-treated rhIL13Rα2hFc (human) (Q14627 27-343 limits assumed): as the sequence (Q14627 27-343 limits assumed, stated change not applied) above

Turning to mAb to IL13Rα2 (clone 83807) (antibody), in assay [1], the Kd worked out at 104 nM, the koff turned out to be 0.00231 s⁻¹ and the kon was 22300 M⁻¹ s⁻¹. Also, the percent decrease of binding against untreated protein in assay [2] was 80%.

For mIgG (antibody), the % positive cells in assay [3] came to 0.9%; in assay [4], 1.9%.

As to “monoclonal antibody to IL13Rα2 (clone B-D13)”, the EC50 (read off the curve) in assay [5] stood at 0.2 µg/mL. Besides, in assay [1], the Kd worked out at 46.1 nM, the koff worked out at 0.00499 s⁻¹ and the kon came out at 108000 M⁻¹ s⁻¹.
